Test results: article PMC4344528, “Structural role of the flanking DNA in mariner transposon excision” (Nucleic Acids Research, 2015)

Target: the molecule itself
Test: crystal structure; pre-TS cleavage Mos1 paired-end complex: T216A/D249A transposase mixed equimolar with ds IR DNA substrate; hanging-drop vapour diffusion, 100 mM ammonium acetate, 20 mM MgCl2, 50 mM HEPES pH 7.0, 5% PEG 8000; 3.09 Å, C222(1)

B1: T216A/D249A Mos1 transposase double mutant (enzyme)
chain: MSSFVPNKEQTRTVLIFCFHLKKTAAESHRMLVEAFGEQVPTVKKCERWFQRFKSGDFDVDDKEHGKPPKRYEDAELQALLDEDDAQTQKQLAEQLEVSQQAVSNRLREMGKIQKVGRWVPHELNERQMERRKNTCEILLSRYKRKSFLHRIVTGDEKWIFFVSPKRKKSYVDPGQPATSTARPNRFGKKTMLCVWWDQSGVIYYELLKRGETVNAARYQQQLINLNRALQRKRPEYQKRQHRVIFLHANAPSHTARAVRDTLETLNWEVLPHAAYSPDLAPSDYHLFASMGHALAEQRFDSYESVKKWLDEWFAAKDDEFYWRGIHKLPERWEKCVASDGKY
notes: mariner Mos1 transposase, from the codon-optimized Mos1 gene; T216A allows soluble expression in E. coli, D249A is the active site mutation; Crystallised as a paired-end complex (PEC): a transposase dimer with two DNA substrates (33 nt transferred strand, 25 nt non-transferred strand); PDB 3HOS is the post-cleavage PEC of the parent transposase, without D249A; also called T216A/D249A mutant …
  stoichiometry N: 2
